Laboratory results as given in article doi:10.1101/259481 (bioRxiv, 2018).
Like-named read-outs stand apart in the source and are kept apart here.

T1: recombinant human syndecan-1 (human, UniProt P18827 23-254)
T1 sequence (looked up): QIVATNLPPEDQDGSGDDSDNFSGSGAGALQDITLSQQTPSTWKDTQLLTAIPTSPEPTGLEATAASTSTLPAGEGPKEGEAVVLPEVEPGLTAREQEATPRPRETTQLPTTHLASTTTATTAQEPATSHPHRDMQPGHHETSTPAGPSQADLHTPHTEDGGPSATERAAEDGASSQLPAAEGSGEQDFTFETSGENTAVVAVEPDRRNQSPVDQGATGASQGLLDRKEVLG

T2: recombinant human syndecan-4 (human, UniProt P31431 19-145)
T2 sequence (looked up): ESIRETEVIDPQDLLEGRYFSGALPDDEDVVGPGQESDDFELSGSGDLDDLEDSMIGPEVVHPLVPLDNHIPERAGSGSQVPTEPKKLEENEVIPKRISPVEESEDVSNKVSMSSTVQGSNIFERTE

T3: recombinant laminin α3_(2928-3150) protein (human, UniProt Q16787 2928-3150)
T3 sequence (looked up): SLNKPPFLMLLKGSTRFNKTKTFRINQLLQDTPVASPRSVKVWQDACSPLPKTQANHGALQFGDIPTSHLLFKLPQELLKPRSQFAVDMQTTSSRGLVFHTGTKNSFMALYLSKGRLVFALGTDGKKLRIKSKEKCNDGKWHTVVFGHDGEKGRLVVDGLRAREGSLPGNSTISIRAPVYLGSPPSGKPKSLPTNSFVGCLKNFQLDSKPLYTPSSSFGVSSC

B1: platelet-derived growth factor (PDGF)-BB (ligand, human, UniProt P01127 82-190, looked up)
chain: SLGSLTIAEPAMIAECKTRTEVFEISRRLIDRTNANFLVWPPCVEVQRCSGCCNNRNVQCRPTQVQLRPVQVRKIEIVRKKPIFKKATVTLEDHLACKCETVAAARPVT
B2: placental growth factor (PlGF)-2 (ligand, human, UniProt P49763-3 19-170, looked up)
chain: LPAVPPQQWALSAGNGSSEVEVVPFQEVWGRSYCRALERLVDVVSEYPSEVEHMFSPSCVSLLRCTGCCGDENLHCVPVETANVTMQLLKIRSGDRPSYVELTFSQHVRCECRPLREKMKPERRRPKGRGKRRREKQRPTDCHLCGDAVPRR

Experiments:
[1] = biological target: recombinant laminin α3_(2928-3150) protein (human) (UniProt Q16787); assay: SPR
[2] = biological target: laminin-521 (human, UniProt O15230 36-3695; P55268 33-1798; P11047 34-1609); assay: SPR
[3] = biological target: B2; assay: ELISA
[4] = biological target: fibroblast growth factor (FGF)-2 (human, UniProt P09038 143-288); assay: ELISA
[5] = biological target: B1; assay: ELISA
[6] = biological target: T1, recombinant human syndecan-1; assay: ELISA
[7] = biological target: T2, recombinant human syndecan-4; assay: ELISA
[8] = biological target: recombinant human syndecan-2 (human, UniProt P34741 19-144); assay: ELISA
[9] = biological target: T3, recombinant laminin α3_(2928-3150) …; assay: SPR
[10] = biological target: T4, laminin-211 (human, UniProt P24043 23-3122; P07942 22-1786; P11047 34-1609); assay: ELISA
[11] = biological target: T5, laminin-111 (human, UniProt P25391 18-3075; P07942 22-1786; P11047 34-1609); assay: ELISA
[12] = biological target: laminin-421 (human, UniProt Q16363 25-1823; P55268 33-1798; P11047 34-1609); assay: ELISA
[13] = biological target: laminin-411 (human, UniProt Q16363 25-1823; P07942 22-1786; P11047 34-1609); assay: ELISA
[14] = biological target: T4, laminin-211; assay: ELISA; remark: listed apart in the source
[15] = biological target: T5, laminin-111; assay: ELISA; remark: listed apart in the source
[16] = biological target: T3, recombinant laminin α3_(2928-3150) …; assay: ELISA

recombinant human syndecan-2, sequence (P34741 19-144): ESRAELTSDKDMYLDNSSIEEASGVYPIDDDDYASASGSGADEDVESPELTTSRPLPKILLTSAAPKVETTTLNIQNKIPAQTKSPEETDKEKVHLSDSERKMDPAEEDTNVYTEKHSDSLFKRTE
fibroblast growth factor (FGF)-2, sequence (P09038 143-288): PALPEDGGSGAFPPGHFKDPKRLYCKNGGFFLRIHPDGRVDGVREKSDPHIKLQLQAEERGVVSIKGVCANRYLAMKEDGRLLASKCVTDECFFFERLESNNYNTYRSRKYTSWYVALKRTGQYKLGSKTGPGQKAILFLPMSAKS

| Kd [2] [nM] | binding result [3] | binding result [4] | binding result [5] | binding result [6] | binding result [7] | binding result [8] | Molecule | other results |
| --- | --- | --- | --- | --- | --- | --- | --- | --- |
| 5.8 | – | – | – | – | – | – | vascular endothelial growth factor (VEGF)-A165 (ligand) | Kd [1]: 1.2 nM |
| – | binds | binds | binds | binds | binds | binds | RLVFALGTDGKKLRIKSKEKCNDGK (peptide, UniProt Q16787 3043-3067, looked up) [laminin-derived peptide α3_(3043-3067)] | – |
| – | – | binds | – | – | – | – | PPFLMLLKGSTRFNKTKTFR (peptide, UniProt Q16787 2932-2951, looked up) [laminin-derived peptide α3_(2932-2951)] | – |
| 24.2 | – | – | – | – | – | – | B1 | Kd [9]: 10.2 nM; binding result [10]: binds; binding result [11]: binds; binding result [12]: binds; binding result [13]: binds |
| 12.9 | – | – | – | – | – | – | B2 | binding result [14]: binds; binding result [15]: binds; binding result [16]: binds; binding result [12]: binds; binding result [13]: binds |
| – | binds | binds | binds | binds | binds | binds | RQRSRPGRWHKVSVRWEKNR (peptide, UniProt O15230 3417-3436, looked up) [laminin-derived peptide α5_(3417-3436)] | – |
| – | binds | – | – | binds | binds | binds | TPGLGPRGLQATARKASRRSRQPARHPACML (peptide, UniProt O15230 3300-3330, looked up) [laminin-derived peptide α5_(3300-3330)] | – |
| – | binds | binds | binds | – | – | – | TLPDVGLELEVR (peptide, UniProt O15230 3539-3550, looked up) [laminin-derived peptide α5_(3539-3550)] | – |
